The target in the assay is baculovirus-expressed human Dnmt1 (human, UniProt P26358 1-1616). Put plainly: pull-down.
Sequence of baculovirus-expressed human Dnmt1 (P26358 whole entry): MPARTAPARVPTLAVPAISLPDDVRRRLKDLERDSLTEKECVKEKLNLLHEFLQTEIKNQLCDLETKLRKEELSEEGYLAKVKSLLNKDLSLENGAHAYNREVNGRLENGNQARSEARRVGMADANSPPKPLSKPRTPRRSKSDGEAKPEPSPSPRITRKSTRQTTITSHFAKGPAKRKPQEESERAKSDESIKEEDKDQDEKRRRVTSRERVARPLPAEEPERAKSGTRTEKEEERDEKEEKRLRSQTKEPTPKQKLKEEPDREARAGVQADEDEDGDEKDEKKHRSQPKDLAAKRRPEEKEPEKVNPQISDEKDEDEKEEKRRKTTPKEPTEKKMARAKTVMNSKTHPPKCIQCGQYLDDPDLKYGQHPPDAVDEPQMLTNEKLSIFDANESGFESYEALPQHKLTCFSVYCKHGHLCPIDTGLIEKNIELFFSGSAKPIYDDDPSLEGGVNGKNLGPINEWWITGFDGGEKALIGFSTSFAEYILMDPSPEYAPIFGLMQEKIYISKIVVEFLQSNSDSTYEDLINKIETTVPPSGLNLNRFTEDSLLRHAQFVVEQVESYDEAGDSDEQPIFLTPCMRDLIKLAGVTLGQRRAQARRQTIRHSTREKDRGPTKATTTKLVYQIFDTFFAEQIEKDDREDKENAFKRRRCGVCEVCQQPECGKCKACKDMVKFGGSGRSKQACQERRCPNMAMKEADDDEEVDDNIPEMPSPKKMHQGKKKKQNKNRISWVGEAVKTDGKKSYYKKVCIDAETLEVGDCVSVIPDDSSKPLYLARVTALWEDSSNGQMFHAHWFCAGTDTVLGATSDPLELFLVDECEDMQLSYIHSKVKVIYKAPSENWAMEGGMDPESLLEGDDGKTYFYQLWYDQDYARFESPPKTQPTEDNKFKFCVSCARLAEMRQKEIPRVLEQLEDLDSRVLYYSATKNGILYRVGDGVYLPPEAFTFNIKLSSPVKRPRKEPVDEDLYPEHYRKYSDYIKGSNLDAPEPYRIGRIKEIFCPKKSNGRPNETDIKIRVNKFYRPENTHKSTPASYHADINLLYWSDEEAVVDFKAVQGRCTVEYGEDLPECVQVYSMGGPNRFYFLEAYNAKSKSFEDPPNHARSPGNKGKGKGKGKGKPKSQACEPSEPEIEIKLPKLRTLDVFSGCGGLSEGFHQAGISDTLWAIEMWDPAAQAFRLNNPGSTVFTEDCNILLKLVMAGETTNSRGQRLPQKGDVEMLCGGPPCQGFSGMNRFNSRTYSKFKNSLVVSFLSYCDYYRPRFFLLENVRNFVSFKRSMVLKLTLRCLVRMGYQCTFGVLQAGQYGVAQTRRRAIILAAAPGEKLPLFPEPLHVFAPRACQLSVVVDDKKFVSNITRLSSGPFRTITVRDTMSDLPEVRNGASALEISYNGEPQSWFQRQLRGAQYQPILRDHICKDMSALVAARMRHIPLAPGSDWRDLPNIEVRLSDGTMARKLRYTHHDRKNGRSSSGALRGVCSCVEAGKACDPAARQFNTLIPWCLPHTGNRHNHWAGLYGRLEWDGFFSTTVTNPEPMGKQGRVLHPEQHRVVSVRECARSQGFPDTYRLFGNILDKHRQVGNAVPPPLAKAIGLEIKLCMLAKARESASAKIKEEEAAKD

B1: GST-E7 (HPV-16 E7) (natural protein, UniProt P03129 1-98, looked up)
chain: MHGDTPTLHEYMLDLQPETTDLYCYEQLNDSSEEEDEIDGPAGQAEPDRAHYNIVTFCCKCDSTLRLCVQSTHVDIRTLEDLLMGTLGIVCPICSQKP
Consider B1, for which the binding result is recorded as “binds”.

The values above are taken from PMC3350866 (Oncogene, 2006).
